The source of these data is patent publication US20230036655A1 (OTSUKA PHARMACEUTICAL, published 2023).

For assay [1], the target named is T1, human GDF15 (hGDF15), mature, wild-type (human, UniProt Q99988 197-308).
T1 construct: Bought recombinant protein: R&D Systems 957-GD-025/CF in most assays, 9279-GD in the crystal and the GDF15/GFRAL/RET assay; It was biotinylated in the GFRAL assay; also called hGDF15 (WT); rhGDF15
T1 sequence: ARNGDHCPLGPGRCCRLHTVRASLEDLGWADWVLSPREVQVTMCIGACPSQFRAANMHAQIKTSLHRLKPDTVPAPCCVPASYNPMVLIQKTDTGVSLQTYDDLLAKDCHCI
In words: competition ELISA: GFRAL immobilised, biotinylated GDF15 plus serially diluted antibody; inhibition of GDF15-GFRAL complex formation. From the text:
First, the effect on GDF15 and GFRAL complex formation was examined (FIG. 12). GFRAL (R&D systems, 9697-GR) was immobilized on a plate, and GDF15 (R&D systems, 957-GD/CF) biotinylated with EZ-Link Micro NHS-PEG4-Bitinylation Kit (Thermo Fisher Scientific, 21955) and a serially diluted solution of an anti-GDF15 monoclonal antibody (Table 26) were reacted with the plate. Human IgG1, kappa-Isotype Control (Abcam) was used as a negative control antibody. GDF15 bound to GFRAL was detected using Pierce High Sensitivity Streptavidin-HRP (Thermo Fisher Scientific, 21130). TMB 1-Component Microwell Peroxidase Substrate, SureBlue (SeraCare Life Sciences) was used for color development, and the reaction was stopped by adding a stop solution (Wako). Absorbance was measured at 450 nm (OD450) using Emax (Molecular Devices). The % of control value was calculated according to Equation-1 from the OD450 value when each antibody was added, with the OD450 value when no antibody was added as a control. The IC50 value was obtained by calculating the inhibition rate from the % of control value thus obtained according to Equation-2 and using an Excel macro for IC50 calculation.
Background: In an ELISA, binding on a coated surface is turned into a signal by an enzyme label.

Assay [2] concerns the target T2, mutant hGDF15 3A (human, UniProt Q99988 197-308).
T2 construct: Expressed in ExpiCHO-S cells and used as culture supernatant
T2 chain: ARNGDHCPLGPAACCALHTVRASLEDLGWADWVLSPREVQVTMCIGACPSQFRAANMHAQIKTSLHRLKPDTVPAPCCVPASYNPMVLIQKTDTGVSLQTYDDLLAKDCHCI
In words: sandwich ELISA, HuMAB2 immobilised, mutant hGDF15, goat polyclonal detection (relative value 0.4).

For assay [3], the target named is T3, mutant hGDF15 6A (human, UniProt Q99988 197-308).
T3 construct: Expressed in ExpiCHO-S cells and used as culture supernatant
T3 chain: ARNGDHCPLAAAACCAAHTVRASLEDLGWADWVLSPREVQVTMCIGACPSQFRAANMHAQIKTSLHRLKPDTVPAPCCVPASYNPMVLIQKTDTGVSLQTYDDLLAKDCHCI
In words: sandwich ELISA, HuMAB2 immobilised, mutant hGDF15, goat polyclonal detection (relative value 0.0).

For assay [4], the target named is T4, mutant hGDF15 4A (human, UniProt Q99988 197-308).
T4 construct: Expressed in ExpiCHO-S cells and used as culture supernatant
T4 chain: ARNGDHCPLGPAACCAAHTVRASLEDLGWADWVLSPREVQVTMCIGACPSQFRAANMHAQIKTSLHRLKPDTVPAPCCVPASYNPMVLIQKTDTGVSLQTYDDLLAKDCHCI
Described as above.

A further assay addresses T5, Peptide 1 (human, cysteine pairing not given here).
T5 construct: Synthesized by GenScript
T5 peptide: H-DHCPLGPGRCCRLH-OH
In words: ELISA, peptide immobilised, anti-human IgG-HRP detection. How it is done:
(§1) Peptide 1 was unmodified at both ends, and Peptide 2 was synthesized by acetylating the amino terminus and amidating the carboxyl terminus for the purpose of mimicking the natural state because this region is an internal region within hGDF15. HuMAB2 antibody (10 μg/mL) was added at 100 μL/well to a 96-well plate on which a 10 μg/mL peptide solution had been added at 100 μL/well and the peptide had been immobilized, and thereby reacted with the peptide (25° C. for 3 hours). The bound HuMAB2 antibody was detected by adding a 5000-fold diluted anti-human IgG-HRP (Jackson ImmunoResearch, 109-035-008) at 100 μL/well and reacted at 25° C. for 1 hour. A plate on which hGDF15 (R&D Systems, 957-GD-025/CF) was immobilized was used as a control plate. The detection antibody in Human GDF15 ELISA Kit (R&D Systems, DY957) (Table 9) was used as a positive control antibody that reacts with the peptide, and Human IgG1 Isotype control (Abcam, ab206198) was used as a negative control antibody.

Another assay concerns the target T6, Peptide 2 (human, cysteine pairing not given here).
T6 construct: Synthesized by GenScript
T6 peptide: Ac-DHCPLGPGRCCRLH-NH2
Described as above. How it is done: as §1

The target of assay [5] is T7, mutant hGDF15 8A (human, UniProt Q99988 197-308).
T7 construct: Expressed in ExpiCHO-S cells and used as culture supernatant
T7 chain: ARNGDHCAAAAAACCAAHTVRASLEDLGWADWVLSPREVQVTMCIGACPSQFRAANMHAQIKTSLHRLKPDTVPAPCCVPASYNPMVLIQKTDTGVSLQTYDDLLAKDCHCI
In words: sandwich ELISA, HuMAB2 immobilised, mutant hGDF15, goat polyclonal detection (relative value -0.1).

A further assay concerns the target T8, mutant hGDF15 R13A, R16A (human, UniProt Q99988 197-308).
T8 construct: Expressed in ExpiCHO-S cells and used as culture supernatant in the ELISA
T8 chain: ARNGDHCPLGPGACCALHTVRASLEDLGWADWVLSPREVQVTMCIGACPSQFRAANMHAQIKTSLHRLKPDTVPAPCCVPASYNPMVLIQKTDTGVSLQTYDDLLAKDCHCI
In words: sandwich ELISA: antibody immobilised, WT or mutant hGDF15, goat polyclonal detection; N=3, mean ± SD.

A further assay addresses T9, mutant hGDF15 T72A (human, UniProt Q99988 197-308).
T9 construct: Expressed in ExpiCHO-S cells and used as culture supernatant in the ELISA
T9 chain: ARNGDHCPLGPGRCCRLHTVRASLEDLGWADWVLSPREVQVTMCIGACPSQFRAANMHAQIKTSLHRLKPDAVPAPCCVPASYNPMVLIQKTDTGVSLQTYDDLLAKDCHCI
Described as above.

A further assay addresses T10, mutant hGDF15 H6A (human, UniProt Q99988 197-308).
T10 construct: Expressed in ExpiCHO-S cells and used as culture supernatant in the ELISA
T10 chain: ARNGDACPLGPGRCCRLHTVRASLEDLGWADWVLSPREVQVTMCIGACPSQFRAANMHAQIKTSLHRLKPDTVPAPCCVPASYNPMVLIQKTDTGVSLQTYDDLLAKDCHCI
The description is as above.

In a further assay the target is T11, mutant hGDF15 R16A (human, UniProt Q99988 197-308).
T11 construct: Expressed in ExpiCHO-S cells and used as culture supernatant in the ELISA
T11 chain: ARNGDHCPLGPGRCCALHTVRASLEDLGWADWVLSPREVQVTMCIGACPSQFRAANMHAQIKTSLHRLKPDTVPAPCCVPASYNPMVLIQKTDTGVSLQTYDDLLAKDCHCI
Described as above.

Assay [6] addresses T3, mutant hGDF15 6A. Described as above.
For assay [7], the target named is T2, mutant hGDF15 3A. Described as above.
Assay [8] deals with T7, mutant hGDF15 8A. Described as above.
The next assay deals with T12, mutant hGDF15 R13A (human, UniProt Q99988 197-308).
T12 construct: Expressed in ExpiCHO-S cells and used as culture supernatant in the ELISA
T12 chain: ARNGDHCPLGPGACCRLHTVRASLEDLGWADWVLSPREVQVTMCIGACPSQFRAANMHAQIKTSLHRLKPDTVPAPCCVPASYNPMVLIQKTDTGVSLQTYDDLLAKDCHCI
Described as above.

Assay [9] deals with T4, mutant hGDF15 4A. The assay is described as above.

B1: HuMAB2 (antibody, human IgG1, kappa, V domains shown)
VH: QVQLQESGPGLVKPSETLSLTCTVSGFSINSDCYWIWIRQPPGKGLEYIGYTFYSGITYYNPSLASRTTISRDTSKNQFSLKLSSVTAADTAVYYCARDCDYAMDYWGQGTLVTVSS
VL: DIQMTQSPSSLSASVGDRVTITCRASQDISNYLNWYQQKPGKAVKLLIHYTSTLHSGVPSRFSGSGSGTDYTLTISSLQPEDFATYFCQQGNTLPWTFGQGTKLEIKR
notes: Humanized MAB2 joined to the constant region of bevacizumab; The printed copies of the L chain differ from each other; also called HuMAB2 antibody; H3delK/L7
As a reminder, the IC50 is the concentration needed to halve the response being measured. For B1, the IC50 in [1] was over 500 nM. Moreover, the binding result in the assay with mutant hGDF15 3A [2] was “no binding”; with mutant hGDF15 6A [3], “no binding”; in the assay with mutant hGDF15 4A [4] it was “no binding”; in the assay with Peptide 1, “no binding (tested: 10 µg/mL)”; with Peptide 2, “no binding (tested: 10 µg/mL)”; with mutant hGDF15 8A [5] it was “no binding”. The same molecule came in with a relative binding (amount bound to 500 pg/mL hGDF15 = 100) (relative value (WT hGDF15 = 100)) with mutant hGDF15 R13A, R16A of 4.9. Moreover, the “relative binding (amount bound to 500 pg/mL hGDF15 = 100)” value was 101 relative value (WT hGDF15 = 100) with mutant hGDF15 T72A; 136 relative value (WT hGDF15 = 100) in the assay with mutant hGDF15 H6A; 24 relative value (WT hGDF15 = 100) in the assay with mutant hGDF15 R16A; 0 relative value (WT hGDF15 = 100) with mutant hGDF15 6A [6]; 0.4 relative value (WT hGDF15 = 100) with mutant hGDF15 3A [7]; -0.1 relative value (WT hGDF15 = 100) with mutant hGDF15 8A [8]. In addition, the entries for the “relative binding (amount bound to 500 pg/mL hGDF15 = 100)” value in the assay with mutant hGDF15 R13A and with mutant hGDF15 4A [9] were 17.8 relative value (WT hGDF15 = 100) and 0 relative value (WT hGDF15 = 100), respectively.
